Experimental data: patent publication US20240287154A1, “MC3R AGONIST PEPTIDES” (The Regents of the University of Michigan, priority 2021, published 2024)
Non-standard residues stand in square brackets, D forms with d. d(αMeW) = C[C@@](N)(Cc1c[nH]c2ccccc12)C(=O)O; Phe(4-F) = N[C@@H](Cc1ccc(F)cc1)C(=O)O; Phe(4-I) = N[C@@H](Cc1ccc(I)cc1)C(=O)O; 2Nal = N[C@@H](Cc1ccc2ccccc2c1)C(=O)O; d2Nal = N[C@H](Cc1ccc2ccccc2c1)C(=O)O; dTic = O=C(O)[C@H]1Cc2ccccc2CN1; NMeK = CN[C@@H](CCCCN)C(=O)O; NMeA = CN[C@@H](C)C(=O)O; Nle = CCCC[C@H](N)C(=O)O; dAbu = CC[C@@H](N)C(=O)O; Aib = CC(C)(N)C(=O)O

Biological target: human MC3R (human, UniProt P41968 1-323)
Assay: cell-based or functional assay

Chain of human MC3R (P41968 whole entry): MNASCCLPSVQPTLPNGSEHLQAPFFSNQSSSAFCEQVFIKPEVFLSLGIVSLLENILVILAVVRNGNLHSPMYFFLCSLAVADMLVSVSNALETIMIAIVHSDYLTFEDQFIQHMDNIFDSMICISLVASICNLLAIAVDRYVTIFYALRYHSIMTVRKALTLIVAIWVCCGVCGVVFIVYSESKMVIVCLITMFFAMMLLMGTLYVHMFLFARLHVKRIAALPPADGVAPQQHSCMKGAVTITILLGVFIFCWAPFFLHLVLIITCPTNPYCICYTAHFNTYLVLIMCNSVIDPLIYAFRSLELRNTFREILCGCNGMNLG

B1: CTX-1190 (peptide)
peptide: Ac-[Nle][dA][NMeA]FR[dW]DRFG-OH
SMILES: CCCC[C@H](NC(C)=O)C(=O)N[C@H](C)C(=O)N(C)[C@@H](C)C(=O)N[C@@H](Cc1ccccc1)C(=O)N[C@@H](CCCNC(=N)N)C(=O)N[C@H](Cc1c[nH]c2ccccc12)C(=O)N[C@@H](CC(=O)O)C(=O)N[C@@H](CCCNC(=N)N)C(=O)N[C@@H](Cc1ccccc1)C(=O)NCC(=O)O
With B1 the “MC3R cAMP (EC50)” value was 3920 nM.

B2: CTX-1512 (peptide)
peptide: Ac-[Nle][dA]H[2Nal]R[dW]DRFG-OH
SMILES: CCCC[C@H](NC(C)=O)C(=O)N[C@H](C)C(=O)N[C@@H](Cc1c[nH]cn1)C(=O)N[C@@H](Cc1ccc2ccccc2c1)C(=O)N[C@@H](CCCNC(=N)N)C(=O)N[C@H](Cc1c[nH]c2ccccc12)C(=O)N[C@@H](CC(=O)O)C(=O)N[C@@H](CCCNC(=N)N)C(=O)N[C@@H](Cc1ccccc1)C(=O)NCC(=O)O
B2 was tested, and the “MC3R cAMP (EC50)” value was 13.1 nM and the “MC3R selectivity (relative to MC4R)” value was 804.

With Ac-[Nle][dA]H[Phe(4-I)]R[dTic]DRFG-OH [CTX-1504] the “MC3R selectivity (relative to MC4R)” value was 1.

B3: CTX-1502 (peptide)
peptide: Ac-[Nle][dA]H[Phe(4-I)]R[d2Nal]DRFG-OH
SMILES: CCCC[C@H](NC(C)=O)C(=O)N[C@H](C)C(=O)N[C@@H](Cc1c[nH]cn1)C(=O)N[C@@H](Cc1ccc(I)cc1)C(=O)N[C@@H](CCCNC(=N)N)C(=O)N[C@H](Cc1ccc2ccccc2c1)C(=O)N[C@@H](CC(=O)O)C(=O)N[C@@H](CCCNC(=N)N)C(=O)N[C@@H](Cc1ccccc1)C(=O)NCC(=O)O
B3 was tested, and the “MC3R cAMP (EC50)” value was 6.7 nM and the “MC3R selectivity (relative to MC4R)” value was 184.

B4: CTX-1195 (peptide)
peptide: Ac-YVE[Aib]H[Phe(4-I)]R[dW]DRFG-OH
SMILES: CC(=O)N[C@@H](Cc1ccc(O)cc1)C(=O)N[C@H](C(=O)N[C@@H](CCC(=O)O)C(=O)NC(C)(C)C(=O)N[C@@H](Cc1c[nH]cn1)C(=O)N[C@@H](Cc1ccc(I)cc1)C(=O)N[C@@H](CCCNC(=N)N)C(=O)N[C@H](Cc1c[nH]c2ccccc12)C(=O)N[C@@H](CC(=O)O)C(=O)N[C@@H](CCCNC(=N)N)C(=O)N[C@@H](Cc1ccccc1)C(=O)NCC(=O)O)C(C)C
With B4 the “MC3R cAMP (EC50)” value was 184 nM and the “MC3R selectivity (relative to MC4R)” value was 51.

B5: CTX-1528 (peptide)
peptide: Ac-[Nle][dA]HFR[dW]ARFG-OH
SMILES: CCCC[C@H](NC(C)=O)C(=O)N[C@H](C)C(=O)N[C@@H](Cc1c[nH]cn1)C(=O)N[C@@H](Cc1ccccc1)C(=O)N[C@@H](CCCNC(=N)N)C(=O)N[C@H](Cc1c[nH]c2ccccc12)C(=O)N[C@@H](C)C(=O)N[C@@H](CCCNC(=N)N)C(=O)N[C@@H](Cc1ccccc1)C(=O)NCC(=O)O
In the case of B5, the “MC3R cAMP (EC50)” value is reported as 1.9 nM and the “MC3R selectivity (relative to MC4R)” value is reported as 182.

B6: CTX-1501 (peptide)
peptide: Ac-[Nle][dA]H[Phe(4-I)][dR]WDRFG-OH
SMILES: CCCC[C@H](NC(C)=O)C(=O)N[C@H](C)C(=O)N[C@@H](Cc1c[nH]cn1)C(=O)N[C@@H](Cc1ccc(I)cc1)C(=O)N[C@H](CCCNC(=N)N)C(=O)N[C@@H](Cc1c[nH]c2ccccc12)C(=O)N[C@@H](CC(=O)O)C(=O)N[C@@H](CCCNC(=N)N)C(=O)N[C@@H](Cc1ccccc1)C(=O)NCC(=O)O
For B6, the “MC3R cAMP (EC50)” value was 2800 nM and the “MC3R selectivity (relative to MC4R)” value was 0.01.

B7: CTX-1530 (peptide)
peptide: Ac-[Nle][dA]HFR[dW][dF]RFG-OH
SMILES: CCCC[C@H](NC(C)=O)C(=O)N[C@H](C)C(=O)N[C@@H](Cc1c[nH]cn1)C(=O)N[C@@H](Cc1ccccc1)C(=O)N[C@@H](CCCNC(=N)N)C(=O)N[C@H](Cc1c[nH]c2ccccc12)C(=O)N[C@H](Cc1ccccc1)C(=O)N[C@@H](CCCNC(=N)N)C(=O)N[C@@H](Cc1ccccc1)C(=O)NCC(=O)O
With B7 the “MC3R cAMP (EC50)” value was 289 nM.

B8: CTX-1194 (peptide)
peptide: Ac-YVE[dAbu]H[Phe(4-I)]R[dW]DRFG-OH
SMILES: CC[C@@H](NC(=O)[C@H](CCC(=O)O)NC(=O)[C@@H](NC(=O)[C@H](Cc1ccc(O)cc1)NC(C)=O)C(C)C)C(=O)N[C@@H](Cc1c[nH]cn1)C(=O)N[C@@H](Cc1ccc(I)cc1)C(=O)N[C@@H](CCCNC(=N)N)C(=O)N[C@H](Cc1c[nH]c2ccccc12)C(=O)N[C@@H](CC(=O)O)C(=O)N[C@@H](CCCNC(=N)N)C(=O)N[C@@H](Cc1ccccc1)C(=O)NCC(=O)O
B8 was tested, and the “MC3R cAMP (EC50)” value was 34.3 nM and the “MC3R selectivity (relative to MC4R)” value was 49.

B9: CTX-1510 (peptide)
peptide: Ac-[Nle][dA]HFR[d(αMeW)]DRFG-OH
SMILES: CCCC[C@H](NC(C)=O)C(=O)N[C@H](C)C(=O)N[C@@H](Cc1c[nH]cn1)C(=O)N[C@@H](Cc1ccccc1)C(=O)N[C@@H](CCCNC(=N)N)C(=O)N[C@](C)(Cc1c[nH]c2ccccc12)C(=O)N[C@@H](CC(=O)O)C(=O)N[C@@H](CCCNC(=N)N)C(=O)N[C@@H](Cc1ccccc1)C(=O)NCC(=O)O
For B9, the “MC3R cAMP (EC50)” value was 181 nM and the “MC3R selectivity (relative to MC4R)” value was 23.

B10: CTX-1523 (peptide)
peptide: Ac-[Nle][dA]HFK[dW]DRFG-OH
SMILES: CCCC[C@H](NC(C)=O)C(=O)N[C@H](C)C(=O)N[C@@H](Cc1c[nH]cn1)C(=O)N[C@@H](Cc1ccccc1)C(=O)N[C@@H](CCCCN)C(=O)N[C@H](Cc1c[nH]c2ccccc12)C(=O)N[C@@H](CC(=O)O)C(=O)N[C@@H](CCCNC(=N)N)C(=O)N[C@@H](Cc1ccccc1)C(=O)NCC(=O)O
With B10 the “MC3R cAMP (EC50)” value was 41.7 nM and the “MC3R selectivity (relative to MC4R)” value was 5320.

B11: CTX-1503 (peptide)
peptide: Ac-[Nle][dA]H[Phe(4-I)]R[dF]DRFG-OH
SMILES: CCCC[C@H](NC(C)=O)C(=O)N[C@H](C)C(=O)N[C@@H](Cc1c[nH]cn1)C(=O)N[C@@H](Cc1ccc(I)cc1)C(=O)N[C@@H](CCCNC(=N)N)C(=O)N[C@H](Cc1ccccc1)C(=O)N[C@@H](CC(=O)O)C(=O)N[C@@H](CCCNC(=N)N)C(=O)N[C@@H](Cc1ccccc1)C(=O)NCC(=O)O
For B11, the “MC3R cAMP (EC50)” value was 124 nM and the “MC3R selectivity (relative to MC4R)” value was 214.

B12: CTX-1189 (peptide)
peptide: Ac-[Nle][dA][NMeK]FR[dW]DRFG-OH
SMILES: CCCC[C@H](NC(C)=O)C(=O)N[C@H](C)C(=O)N(C)[C@@H](CCCCN)C(=O)N[C@@H](Cc1ccccc1)C(=O)N[C@@H](CCCNC(=N)N)C(=O)N[C@H](Cc1c[nH]c2ccccc12)C(=O)N[C@@H](CC(=O)O)C(=O)N[C@@H](CCCNC(=N)N)C(=O)N[C@@H](Cc1ccccc1)C(=O)NCC(=O)O
In the case of B12, the “MC3R cAMP (EC50)” value is reported as 3540 nM and the “MC3R selectivity (relative to MC4R)” value is reported as 1.

B13: CTX-1506 (peptide)
peptide: Ac-[Nle][dA]P[Phe(4-I)]R[dF]DRFG-OH
SMILES: CCCC[C@H](NC(C)=O)C(=O)N[C@H](C)C(=O)N1CCC[C@H]1C(=O)N[C@@H](Cc1ccc(I)cc1)C(=O)N[C@@H](CCCNC(=N)N)C(=O)N[C@H](Cc1ccccc1)C(=O)N[C@@H](CC(=O)O)C(=O)N[C@@H](CCCNC(=N)N)C(=O)N[C@@H](Cc1ccccc1)C(=O)NCC(=O)O
In the case of B13, the “MC3R selectivity (relative to MC4R)” value is reported as 1.

B14: CTX-1129 (peptide)
peptide: H-YV[Nle]AHFR[dW]D-NH2
SMILES: CCCC[C@H](NC(=O)[C@@H](NC(=O)[C@@H](N)Cc1ccc(O)cc1)C(C)C)C(=O)N[C@@H](C)C(=O)N[C@@H](Cc1c[nH]cn1)C(=O)N[C@@H](Cc1ccccc1)C(=O)N[C@@H](CCCNC(=N)N)C(=O)N[C@H](Cc1c[nH]c2ccccc12)C(=O)N[C@@H](CC(=O)O)C(N)=O
For B14, the “MC3R cAMP (EC50)” value was 1.2 nM and the “MC3R selectivity (relative to MC4R)” value was 7.5.

B15: CTX-1191 (peptide)
peptide: Ac-[Nle][dAbu]H[Phe(4-I)]R[dW]DRFG-OH
SMILES: CCCC[C@H](NC(C)=O)C(=O)N[C@H](CC)C(=O)N[C@@H](Cc1c[nH]cn1)C(=O)N[C@@H](Cc1ccc(I)cc1)C(=O)N[C@@H](CCCNC(=N)N)C(=O)N[C@H](Cc1c[nH]c2ccccc12)C(=O)N[C@@H](CC(=O)O)C(=O)N[C@@H](CCCNC(=N)N)C(=O)N[C@@H](Cc1ccccc1)C(=O)NCC(=O)O
B15 was tested, and the “MC3R cAMP (EC50)” value was 3.9 nM and the “MC3R selectivity (relative to MC4R)” value was 470.

B16: CTX-1518 (peptide)
peptide: Ac-[Nle][dA]H[Phe(4-F)]R[dW]DRFG-OH
SMILES: CCCC[C@H](NC(C)=O)C(=O)N[C@H](C)C(=O)N[C@@H](Cc1c[nH]cn1)C(=O)N[C@@H](Cc1ccc(F)cc1)C(=O)N[C@@H](CCCNC(=N)N)C(=O)N[C@H](Cc1c[nH]c2ccccc12)C(=O)N[C@@H](CC(=O)O)C(=O)N[C@@H](CCCNC(=N)N)C(=O)N[C@@H](Cc1ccccc1)C(=O)NCC(=O)O
With B16 the “MC3R cAMP (EC50)” value was 1.9 nM and the “MC3R selectivity (relative to MC4R)” value was 1560.

B17: CTX-1197 (peptide)
peptide: Ac-[Nle][dA]R[Phe(4-I)]R[dW]DRFG-OH
SMILES: CCCC[C@H](NC(C)=O)C(=O)N[C@H](C)C(=O)N[C@@H](CCCNC(=N)N)C(=O)N[C@@H](Cc1ccc(I)cc1)C(=O)N[C@@H](CCCNC(=N)N)C(=O)N[C@H](Cc1c[nH]c2ccccc12)C(=O)N[C@@H](CC(=O)O)C(=O)N[C@@H](CCCNC(=N)N)C(=O)N[C@@H](Cc1ccccc1)C(=O)NCC(=O)O
In the case of B17, the “MC3R cAMP (EC50)” value is reported as 13.5 nM and the “MC3R selectivity (relative to MC4R)” value is reported as 250.

With YVXXHFRWDRFG (Nle at 3; D-Abu at 4; D-Trp at 8) [CTX-1135] the “MC3R cAMP (EC50)” value was 1 nM and the “MC3R selectivity (relative to MC4R)” value was 667.

B18: CTX-1529 (peptide)
peptide: Ac-[Nle][dA]HFR[dW]FRFG-OH
SMILES: CCCC[C@H](NC(C)=O)C(=O)N[C@H](C)C(=O)N[C@@H](Cc1c[nH]cn1)C(=O)N[C@@H](Cc1ccccc1)C(=O)N[C@@H](CCCNC(=N)N)C(=O)N[C@H](Cc1c[nH]c2ccccc12)C(=O)N[C@@H](Cc1ccccc1)C(=O)N[C@@H](CCCNC(=N)N)C(=O)N[C@@H](Cc1ccccc1)C(=O)NCC(=O)O
In the case of B18, the “MC3R cAMP (EC50)” value is reported as 4.8 nM and the “MC3R selectivity (relative to MC4R)” value is reported as 82.
